Key:
[1] = target: Grb2 SH2 (UniProt P62993); assay: SH2 binding enrichment of the phosphorylated peptide, bacterial display (enrichment ratio); higher = better substrate or ligand; peptides without Tyr show the background
[2] = target: c-Src SH2; assay: as above
[3] = target: SHP2-C SH2; assay: as above
[4] = target: FGFR1 (UniProt P11362); assay: phosphorylation enrichment, bacterial display (enrichment ratio); higher = better substrate or ligand; peptides without Tyr show the background
[5] = tested on: Fer (mouse); assay: as above
[6] = target: EPHB1 (UniProt P54762); assay: as above
Chain of EPHB1 (P54762 whole entry, looked up): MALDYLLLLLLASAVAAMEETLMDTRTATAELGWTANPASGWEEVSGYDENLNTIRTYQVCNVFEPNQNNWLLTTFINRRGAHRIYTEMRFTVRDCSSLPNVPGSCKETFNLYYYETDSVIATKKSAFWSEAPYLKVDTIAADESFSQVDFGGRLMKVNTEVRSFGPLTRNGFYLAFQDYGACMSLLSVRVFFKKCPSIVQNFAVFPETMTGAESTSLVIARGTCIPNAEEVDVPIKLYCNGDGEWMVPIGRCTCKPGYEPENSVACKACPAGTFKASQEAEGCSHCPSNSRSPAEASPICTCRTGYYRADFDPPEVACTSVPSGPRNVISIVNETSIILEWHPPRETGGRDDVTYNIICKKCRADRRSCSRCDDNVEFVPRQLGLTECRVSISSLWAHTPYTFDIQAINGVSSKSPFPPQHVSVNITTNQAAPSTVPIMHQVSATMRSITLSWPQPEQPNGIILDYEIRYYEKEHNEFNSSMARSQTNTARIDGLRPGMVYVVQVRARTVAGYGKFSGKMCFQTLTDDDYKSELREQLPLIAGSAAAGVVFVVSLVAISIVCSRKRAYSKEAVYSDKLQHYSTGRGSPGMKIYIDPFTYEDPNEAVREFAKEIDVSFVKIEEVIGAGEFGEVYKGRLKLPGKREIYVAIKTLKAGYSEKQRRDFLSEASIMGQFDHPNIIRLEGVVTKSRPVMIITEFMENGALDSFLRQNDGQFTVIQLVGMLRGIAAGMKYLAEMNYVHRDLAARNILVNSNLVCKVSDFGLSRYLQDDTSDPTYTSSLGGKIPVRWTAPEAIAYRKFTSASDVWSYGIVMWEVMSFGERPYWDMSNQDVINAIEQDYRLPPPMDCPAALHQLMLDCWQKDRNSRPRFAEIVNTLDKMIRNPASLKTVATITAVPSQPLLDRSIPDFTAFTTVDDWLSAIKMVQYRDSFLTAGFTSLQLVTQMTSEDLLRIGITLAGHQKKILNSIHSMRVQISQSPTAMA

[7] = target: FGFR3 (UniProt P22607); assay: as above
Chain of FGFR3 (P22607 whole entry, looked up): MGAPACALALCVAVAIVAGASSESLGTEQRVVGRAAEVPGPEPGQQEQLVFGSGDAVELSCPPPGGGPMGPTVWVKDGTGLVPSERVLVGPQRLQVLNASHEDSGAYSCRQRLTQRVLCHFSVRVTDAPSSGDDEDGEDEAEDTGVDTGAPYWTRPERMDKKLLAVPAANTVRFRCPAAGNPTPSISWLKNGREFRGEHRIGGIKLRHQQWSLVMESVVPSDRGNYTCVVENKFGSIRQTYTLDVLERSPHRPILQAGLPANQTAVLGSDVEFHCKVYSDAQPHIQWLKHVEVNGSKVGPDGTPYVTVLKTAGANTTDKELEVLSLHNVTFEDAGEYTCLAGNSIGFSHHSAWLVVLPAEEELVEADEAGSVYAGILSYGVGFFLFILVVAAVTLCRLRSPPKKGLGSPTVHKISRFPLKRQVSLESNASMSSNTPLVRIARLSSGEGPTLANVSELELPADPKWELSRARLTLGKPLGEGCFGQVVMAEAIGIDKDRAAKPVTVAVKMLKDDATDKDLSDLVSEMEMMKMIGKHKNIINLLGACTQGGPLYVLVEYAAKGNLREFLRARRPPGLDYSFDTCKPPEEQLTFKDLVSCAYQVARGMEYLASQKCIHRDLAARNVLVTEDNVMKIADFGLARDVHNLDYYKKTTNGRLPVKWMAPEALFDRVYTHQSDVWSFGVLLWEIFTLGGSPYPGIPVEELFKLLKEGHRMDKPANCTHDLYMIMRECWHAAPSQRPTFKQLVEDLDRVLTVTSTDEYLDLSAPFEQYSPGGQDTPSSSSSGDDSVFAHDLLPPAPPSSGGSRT

[8] = target: Fes (UniProt P07332); assay: as above
[9] = tested on: c-Abl (mouse); assay: as above
[10] = target: EPHB2 (UniProt P29323); assay: as above
[11] = tested on: AncSZ; assay: as above
[12] = target: Fyn (UniProt P06241); assay: as above
Chain of Fyn (P06241 whole entry, looked up): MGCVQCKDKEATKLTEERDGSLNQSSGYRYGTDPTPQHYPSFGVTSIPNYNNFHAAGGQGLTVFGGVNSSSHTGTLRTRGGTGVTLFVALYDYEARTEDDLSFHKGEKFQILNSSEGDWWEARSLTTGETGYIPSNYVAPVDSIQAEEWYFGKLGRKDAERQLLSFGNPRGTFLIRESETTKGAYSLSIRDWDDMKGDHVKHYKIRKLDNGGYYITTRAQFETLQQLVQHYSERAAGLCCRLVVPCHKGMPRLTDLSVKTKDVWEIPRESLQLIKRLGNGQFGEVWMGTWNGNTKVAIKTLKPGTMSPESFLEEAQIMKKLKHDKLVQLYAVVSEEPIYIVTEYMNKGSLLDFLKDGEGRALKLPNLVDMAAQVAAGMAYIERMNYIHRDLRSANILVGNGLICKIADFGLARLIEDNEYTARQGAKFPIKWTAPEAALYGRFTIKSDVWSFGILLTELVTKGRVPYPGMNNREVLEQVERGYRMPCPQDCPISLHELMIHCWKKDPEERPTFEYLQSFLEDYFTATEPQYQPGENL

[13] = target: Jak2 (UniProt O60674); assay: as above
[14] = target: Hck (UniProt P08631); assay: as above
Chain of Hck (P08631 whole entry, looked up): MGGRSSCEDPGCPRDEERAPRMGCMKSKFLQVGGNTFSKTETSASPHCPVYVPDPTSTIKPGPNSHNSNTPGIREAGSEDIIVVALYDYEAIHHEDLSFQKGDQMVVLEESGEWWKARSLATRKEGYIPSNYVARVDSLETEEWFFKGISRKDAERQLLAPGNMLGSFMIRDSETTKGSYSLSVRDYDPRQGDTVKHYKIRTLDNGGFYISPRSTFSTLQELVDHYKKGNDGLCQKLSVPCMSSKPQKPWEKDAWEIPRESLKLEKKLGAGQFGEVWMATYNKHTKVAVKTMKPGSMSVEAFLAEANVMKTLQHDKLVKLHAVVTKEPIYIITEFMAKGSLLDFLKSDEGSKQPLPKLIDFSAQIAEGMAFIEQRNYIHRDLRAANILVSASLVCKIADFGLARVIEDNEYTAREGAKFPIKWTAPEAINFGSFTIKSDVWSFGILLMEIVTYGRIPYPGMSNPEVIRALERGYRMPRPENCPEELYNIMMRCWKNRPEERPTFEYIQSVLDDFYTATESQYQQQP

[15] = target: MERTK (UniProt Q12866); assay: as above
Chain of MERTK (Q12866 whole entry, looked up): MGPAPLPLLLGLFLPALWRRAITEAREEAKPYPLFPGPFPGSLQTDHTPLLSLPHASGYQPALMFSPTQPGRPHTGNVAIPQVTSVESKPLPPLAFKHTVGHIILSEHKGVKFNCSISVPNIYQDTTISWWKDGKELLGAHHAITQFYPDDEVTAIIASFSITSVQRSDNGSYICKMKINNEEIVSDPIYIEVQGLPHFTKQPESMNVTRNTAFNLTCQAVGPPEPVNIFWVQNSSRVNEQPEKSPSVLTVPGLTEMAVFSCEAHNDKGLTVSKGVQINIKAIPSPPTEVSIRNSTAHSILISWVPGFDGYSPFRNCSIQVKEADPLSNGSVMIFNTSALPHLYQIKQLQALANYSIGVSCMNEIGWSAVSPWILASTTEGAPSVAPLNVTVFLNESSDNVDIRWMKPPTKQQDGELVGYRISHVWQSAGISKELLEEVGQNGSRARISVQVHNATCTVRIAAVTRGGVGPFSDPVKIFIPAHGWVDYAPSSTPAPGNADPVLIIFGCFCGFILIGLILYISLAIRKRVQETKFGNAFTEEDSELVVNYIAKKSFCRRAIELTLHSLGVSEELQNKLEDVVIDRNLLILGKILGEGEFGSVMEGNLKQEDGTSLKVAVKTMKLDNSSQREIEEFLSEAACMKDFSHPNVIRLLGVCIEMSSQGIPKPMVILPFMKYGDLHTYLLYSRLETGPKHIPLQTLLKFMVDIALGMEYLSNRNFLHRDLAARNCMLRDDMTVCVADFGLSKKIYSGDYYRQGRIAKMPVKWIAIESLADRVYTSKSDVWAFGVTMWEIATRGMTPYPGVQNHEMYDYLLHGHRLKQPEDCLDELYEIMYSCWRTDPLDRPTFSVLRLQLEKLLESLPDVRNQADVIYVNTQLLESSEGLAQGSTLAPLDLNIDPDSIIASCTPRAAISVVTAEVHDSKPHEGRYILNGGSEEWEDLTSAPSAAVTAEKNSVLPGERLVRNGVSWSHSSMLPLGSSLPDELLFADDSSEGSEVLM

[16] = tested on: c-Src; assay: as above
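For SH2 binding enrichment of the phosphorylated peptide, bacterial display in this document: peptide library displayed on the E. coli surface as eCPX fusions, selected cells deep-sequenced, score is each peptide's frequency after selection divided by its frequency in the input.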
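For phosphorylation enrichment, bacterial display in this document: 11-residue human phosphosite peptides and single-mutation variants displayed on the E. coli surface, counted by deep sequencing, each peptide's frequency after selection divided by its frequency in the unselected input library; frequency after pTyr selection over input frequency; kinase dosed for 20-30% of maximal phosphorylation in three min.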

Chain of Grb2 SH2 (P62993 whole entry, looked up): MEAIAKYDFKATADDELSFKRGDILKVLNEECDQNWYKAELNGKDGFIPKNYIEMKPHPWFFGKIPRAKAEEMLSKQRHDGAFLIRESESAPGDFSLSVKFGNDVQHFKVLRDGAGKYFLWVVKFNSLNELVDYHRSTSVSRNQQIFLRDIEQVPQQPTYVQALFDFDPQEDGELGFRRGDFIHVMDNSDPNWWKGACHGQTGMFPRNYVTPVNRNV
Chain of FGFR1 (P11362 whole entry, looked up): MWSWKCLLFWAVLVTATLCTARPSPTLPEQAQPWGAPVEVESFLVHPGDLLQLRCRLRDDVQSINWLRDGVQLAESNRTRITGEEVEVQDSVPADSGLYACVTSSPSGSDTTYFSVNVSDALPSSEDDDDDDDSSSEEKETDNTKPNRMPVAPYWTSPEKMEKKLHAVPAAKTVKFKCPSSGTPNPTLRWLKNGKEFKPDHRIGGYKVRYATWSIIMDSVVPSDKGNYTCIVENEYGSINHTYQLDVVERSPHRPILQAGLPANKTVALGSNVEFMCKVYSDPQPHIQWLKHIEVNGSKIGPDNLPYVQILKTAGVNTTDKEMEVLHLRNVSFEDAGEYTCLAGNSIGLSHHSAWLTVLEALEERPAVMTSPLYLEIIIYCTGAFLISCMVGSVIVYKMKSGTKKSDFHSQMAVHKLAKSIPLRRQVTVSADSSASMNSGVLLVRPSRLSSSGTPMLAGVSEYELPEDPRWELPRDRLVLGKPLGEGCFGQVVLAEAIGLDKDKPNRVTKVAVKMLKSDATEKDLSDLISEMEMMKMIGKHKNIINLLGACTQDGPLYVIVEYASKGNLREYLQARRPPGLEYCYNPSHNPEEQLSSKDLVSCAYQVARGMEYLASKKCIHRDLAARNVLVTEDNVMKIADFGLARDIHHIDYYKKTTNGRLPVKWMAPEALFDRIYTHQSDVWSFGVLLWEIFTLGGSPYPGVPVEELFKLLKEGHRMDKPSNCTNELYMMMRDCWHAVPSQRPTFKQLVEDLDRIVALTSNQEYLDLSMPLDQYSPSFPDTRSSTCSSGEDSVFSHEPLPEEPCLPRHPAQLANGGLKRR

Sequence | SH2 binding enrichment [1] | SH2 binding enrichment [2] | SH2 binding enrichment [3] | phosphorylation enrichment [4] | phosphorylation enrichment [5] | phosphorylation enrichment [6] | phosphorylation enrichment [7] | phosphorylation enrichment [8] | phosphorylation enrichment [9] | phosphorylation enrichment [10] | phosphorylation enrichment [11] | phosphorylation enrichment [12] | phosphorylation enrichment [13] | phosphorylation enrichment [14] | phosphorylation enrichment [15] | phosphorylation enrichment [16]
DGTVHYVDEKG [IFT140_Y216] | 0.64 | 0.381 | 0.544 | 0.592 | 0.593 | 0.666 | 0.83 | 1.23 | 0.653 | 0.682 | 1.02 | 0.671 | 0.832 | 0.586 | 0.443 | 0.376
KRNSLYSFSDH [CCDC82_Y331_Q327R] | 0.89 | 0.548 | 0.846 | 0.411 | 0.829 | 0.458 | 0.471 | 0.55 | 0.569 | 0.379 | 0.531 | 1.54 | 0.416 | 0.964 | 4.12 | 1.33
LLDGEYFTLQI [TP53_Y327_P322L] | 1.08 | 0.6 | 0.462 | 10.9 | 1.99 | 1.95 | 8.15 | 5.59 | 3.69 | 1.49 | 5.89 | 3.2 | 8.38 | 2.24 | 1.28 | 7.23
SGFESYGSSSS [RPA2_Y9_Y14S] | 0.735 | 0.425 | 0.737 | 0.461 | 0.521 | 0.47 | 0.599 | 0.658 | 0.633 | 0.617 | 0.651 | 0.453 | 0.555 | 0.484 | 0.502 | 0.541
KACKHYLTTRT [ZBTB5_Y118] | 1.7 | 1.43 | 1.4 | 0.448 | 0.534 | 0.46 | 0.64 | 0.964 | 0.859 | 0.507 | 0.712 | 0.505 | 0.978 | 0.501 | 0.563 | 0.659
SGPRRYTIATL [TTR_Y125_A129T] | 0.803 | 0.539 | 0.723 | 0.432 | 0.361 | 1.36 | 0.398 | 0.44 | 0.39 | 0.344 | 0.472 | 0.377 | 1.03 | 0.372 | 0.425 | 0.375
FIRKDYEACKA [BBS4_Y48_YF] | 1.07 | 0.792 | 0.731 | 0.502 | 0.49 | 0.651 | 0.592 | 0.865 | 0.726 | 0.516 | 0.642 | 0.445 | 0.741 | 0.396 | 0.334 | 0.479
SFTDPYAQPSL [KMT2D_Y2378_P2382S_YF] | 0.777 | 2.12 | 0.759 | 0.508 | 0.447 | 0.47 | 0.67 | 0.806 | 0.747 | 0.526 | 0.743 | 0.481 | 0.689 | 0.581 | 0.429 | 0.447
IEENGYNTFAS [FGF10_Y161_YF] | 0.749 | 1.45 | 0.66 | 0.602 | 0.498 | 0.478 | 0.614 | 1.07 | 0.846 | 0.526 | 0.952 | 0.451 | 0.961 | 0.477 | 0.506 | 0.628
HPWPQYTTRAP [FNDC1_Y1281] | 1.12 | 0.594 | 0.99 | 0.421 | 0.454 | 0.316 | 0.54 | 0.603 | 0.697 | 0.594 | 0.628 | 0.554 | 0.846 | 0.572 | 0.546 | 0.561
SDGHEYIFVDR [PDGFRB_Y579_P584R_YF] | 0.845 | 0.636 | 0.676 | 1.04 | 0.329 | 0.427 | 0.833 | 0.759 | 0.489 | 0.448 | 0.962 | 0.436 | 0.71 | 0.398 | 0.35 | 0.517
LSAPWYLNRIS [HEXA_Y421] | 1.19 | 0.697 | 1.19 | 0.429 | 0.359 | 0.562 | 0.533 | 0.797 | 0.447 | 0.511 | 0.791 | 0.371 | 0.699 | 0.46 | 0.331 | 0.362
TGVWDYIHVVD [GALE_Y241_R239W] | 0.746 | 0.383 | 0.552 | 0.684 | 0.493 | 0.756 | 0.916 | 1.43 | 0.966 | 0.588 | 1.43 | 0.47 | 1.39 | 0.566 | 0.433 | 0.471
AHAGEYGVEAL [HBA1_Y25_A27V] | 0.872 | 0.493 | 0.79 | 0.499 | 0.448 | 0.492 | 0.678 | 0.9 | 0.595 | 0.631 | 0.83 | 0.525 | 0.793 | 0.547 | 0.422 | 0.402
AHPIIYTIIEA [PYKtide_no-pT_2014] | 1.21 | 1.5 | 1.66 | 1.57 | 3.1 | 5.42 | 1.44 | 1.21 | 1.85 | 1.3 | 0.892 | 3.29 | 0.838 | 2.74 | 7.03 | 3.47
RYLTRYIYNRE [HLA-DQB1_Y62_V59L] | 1.11 | 0.627 | 0.763 | 0.564 | 0.813 | 4.73 | 0.772 | 1.32 | 1.07 | 0.773 | 1.91 | 1.11 | 1.92 | 0.621 | 3.87 | 1.57
DKATEYIQYMR [MAX_Y70] | 0.938 | 0.469 | 1.4 | 0.479 | 0.394 | 0.448 | 0.572 | 0.622 | 0.499 | 0.451 | 0.852 | 0.624 | 0.625 | 0.504 | 0.4 | 0.486

— the supplement of paper PMC10065799, “High-throughput profiling of sequence recognition by tyrosine kinases and SH2 domains using bacterial peptide display” (eLife, 2023)
